Source: patent US10155020B2, “Compositions and methods for treating hepatitis B” (The Regents of the University of Colorado, a body corporate, priority 2012, dated 2018)
Where “and” joins values, the source holds several entries; their conditions need not be identical. Equal values may be shown once.

Key:
[1] = molecular target: CED-9 (C. elegans) (UniProt P41958); assay: isothermal titration calorimetry; peptaibol TK titrated into CED-9
[2] = tested on: HBV DNA replication; assay: HBV DNA replication in pHBV-transfected HepG2 cells; format: cell-based, hepatitis B virus; details: cells transfected with mutant HBV genome HBx(G124L, I127A); 5 μM
Description: Quantification of HBV DNA replication and HBcAg. Southern hybridization analysis and quantitative real-time PCR were used to quantify the amount of HBV replication DNA intermediates isolated from HepG2 cells or from mouse livers. The level of cytoplasmic HBcAg was measured by chemiluminescence using a commercial assay kit.
Southern Blot Analysis. HepG2 cells (3×10 cm plate per sample) transfected with the pHBV replicon (wild-type or mutant) were washed twice with cold phosphate-buffered saline (PBS) and lysed in 750 μl NET buffer (50 mM Tris-HCl pH 7.5, 1 mM EDTA, 100 mM NaCl, 0.5% Nonidet P-40) per 10 cm plate for 1 hour. HepG2 cell lysates were clarified by centrifugation at 12000 g for 30 minutes at 4° C. The supernatant was adjusted to 6 mM CaCl2 and treated with 100 μg/ml of Micrococcal nuclease for 30 minutes at 37° C. The reaction was stopped by addition of EDTA to a final concentration of 25 mM. […]
Quantitative Real-Time PCR Analysis. […] The pHBV plasmid was used as the standard for quantification and serial dilutions from 2×10^8 to 200 IU/ml were prepared. The primer sequences for quantitative PCR were chosen carefully from regions coding for HBV S antigen and Polymerase. […] PCR products were analyzed by fluorescence. […] The measured raw copy number from each reaction was calculated using the CT value of each PCR interpolated against the linear regression of the standard curve. […]

[3] = tested on: cytosolic Ca^2+ in PLM neurons; assay: Cameleon FRET cytosolic calcium imaging in PLM neurons (bzIs17); format: in vivo, C. elegans
Description: Calcium imaging and analysis. A C. elegans strain with an integrated Pmec-4YC2.12 cameleon transgene (bzIs17) was used to quantify relative cytosolic calcium levels in PLM neurons by the FRET microscopy.
Calcium Imaging and Analysis in C. elegans. A C. elegans strain with an integrated Pmec-4YC2.12 cameleon transgene (bzIs17) was used to quantify relative cytosolic calcium levels in PLM neurons. Animals at the L1 larval stage were immobilized on a 2% agar pad in a solution containing 0.3 M 2,3-butanedione monoxime and 10 mM HEPES (pH 7.2). PLM neurons were visualized using an Axioplan 2 Nomarski Microscope (Zeiss) equipped with a SensiCam CCD camera (PCO Imaging Kelheim, Germany). […] The FRET ratio was calculated by (FRETPLM−FRETbkgnd)/(CFPPLM−CFPbkgnd), where FRETPLM and CFPPLM are the mean fluorescent intensities in the FRET and CFP channels of the PLM neuron and FRETbkgnd and CFPbkgnd are the mean fluorescent intensities in the FRET and CFP channels of a background region adjacent to the PLM neurons.
A C. elegans strain carrying an integrated transgene (bzIs17) that expresses a cameleon Ca^2+ sensor under the control of the mec-4 gene promoter was used to monitor intracellular Ca^2+ in six touch cells through the fluorescence-resonance energy transfer (FRET) assay.

[4] = tested on: PLM neurons; assay: PLM touch cell killing by HBx in C. elegans; format: in vivo
Description: The presence of GFP-positive PLM neurons was scored using a Nomarski microscope. The data are shown in three categories: both PLM missing (black bars), one PLM missing (gray bars) and no PLM missing (white bars). The y axis represents percentage of each category. Percentage numbers under columns indicate the total PLM missing percentage in each experiment. More than 40 animals were scored in each experiment.
C. elegans strains and cell death assays. Animals were grown and maintained using standard protocols. Germline transformation was used to generate transgenic C. elegans strains expressing HBx and other genes. […] PLM killing by HBx was scored as described in Nat Struct Mol Biol., 2008, 15, 1094-1101.
Quantification of PLM Killings by HBx. PLM neurons were scored in L4 larvae in the presence of the integrated transgene, smIs98 or bzIs8, using a Nomarski microscope equipped with epifluorescence.
Chemical Treatment of C. elegans. Worms were treated with chemicals using an oil-base protocol. […] L4 larval stage hermaphrodite animals were placed onto standard NGM plates seeded with OP50. Oil solutions containing the chemicals were spread (0.8-1.0 ml) onto each plate so that the NGM surface was completely covered by oil. Worms lived at the interface of the NGM medium and the oil. F1 progeny was examined for PLM cell death or the FRET ratio in PLMs.

[5] = molecular target: CED-9 pre-incubated with peptaibol TK (C. elegans; Trichoderma pseudokoningii) (UniProt P41958); assay: isothermal titration calorimetry; CED-9 pre-incubated with peptaibol TK, titrated with EGL-1
[6] = molecular target: T1, CED-9 (Caenorhabditis elegans, UniProt P41958); assay: Isothermal titration calorimetry (ITC), titration of CED-9; format: binding, C. elegans; details: no peptaibol TK
T1 sequence (P41958 1-280): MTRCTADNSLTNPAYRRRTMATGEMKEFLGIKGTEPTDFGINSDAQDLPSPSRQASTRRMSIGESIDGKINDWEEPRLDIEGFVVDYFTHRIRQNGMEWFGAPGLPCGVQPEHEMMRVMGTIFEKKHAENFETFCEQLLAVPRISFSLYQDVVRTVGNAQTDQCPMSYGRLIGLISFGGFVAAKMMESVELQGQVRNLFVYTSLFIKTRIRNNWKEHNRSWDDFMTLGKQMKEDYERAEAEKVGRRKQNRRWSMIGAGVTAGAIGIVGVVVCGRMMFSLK

[7] = molecular target: T2, CED-9 (C. elegans, UniProt P41958 1-251); assay: isothermal titration calorimetry
T2 sequence (looked up): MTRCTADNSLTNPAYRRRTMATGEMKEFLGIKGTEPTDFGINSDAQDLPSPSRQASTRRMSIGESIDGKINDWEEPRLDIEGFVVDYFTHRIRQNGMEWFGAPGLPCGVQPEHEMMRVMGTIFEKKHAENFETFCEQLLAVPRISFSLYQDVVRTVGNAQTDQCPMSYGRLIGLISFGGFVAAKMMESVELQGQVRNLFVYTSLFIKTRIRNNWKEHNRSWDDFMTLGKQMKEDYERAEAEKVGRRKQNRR

[8] = molecular target: Bcl-2 family proteins; assay: cell-based or functional assay
[9] = molecular target: T3, Mcl-1 (human, UniProt Q07820 1-350); assay: co-immunoprecipitation with anti-Flag antibody from HepG2 cells, immunoblot
T3 construct: also called anti-apoptotic Bcl-2 family member Mcl-1

[10] = molecular target: T4, CED-9(68-251; G169E)-His6 (C. elegans, UniProt P41958 68-251); assay: GST pull-down, immunoblot
T4 construct: range 68-251; also called CED-9(G169E); mutant CED-9(G169E) protein
T4 sequence: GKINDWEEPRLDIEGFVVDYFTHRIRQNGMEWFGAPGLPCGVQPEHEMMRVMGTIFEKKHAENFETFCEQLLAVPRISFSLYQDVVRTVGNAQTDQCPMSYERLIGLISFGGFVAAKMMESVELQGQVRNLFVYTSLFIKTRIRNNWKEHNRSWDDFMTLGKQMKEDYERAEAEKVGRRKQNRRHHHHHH

[11] = molecular target: T5, His6-mBax(1-173) (mouse, UniProt Q07813 1-173); assay: GST pull-down, immunoblot
T5 construct: range 1-173; also called mouse Bax(1-173)

[12] = molecular target: T3, Mcl-1; assay: co-immunoprecipitation with anti-HBx antibody from pHBV-transfected HepG2 cells, immunoblot
[13] = molecular target: T6, CED-9 (in C. elegans animals) (C. elegans, UniProt P41958 1-280); assay: cell-based or functional assay
T6 sequence: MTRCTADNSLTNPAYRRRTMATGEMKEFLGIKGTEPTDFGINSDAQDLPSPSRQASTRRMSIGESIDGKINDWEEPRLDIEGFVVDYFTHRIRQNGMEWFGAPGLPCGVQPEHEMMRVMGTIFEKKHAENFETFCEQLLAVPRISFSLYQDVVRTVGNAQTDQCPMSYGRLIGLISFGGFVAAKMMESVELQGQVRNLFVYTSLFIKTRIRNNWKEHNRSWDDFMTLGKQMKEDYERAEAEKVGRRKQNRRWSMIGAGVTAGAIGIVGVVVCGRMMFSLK

[14] = molecular target: T7, human Bcl-xL (human, UniProt Q07817 1-233); assay: co-immunoprecipitation with anti-HBx antibody from pHBV-transfected HepG2 cells, immunoblot
T7 construct: also called endogenous Bcl-xL

[15] = molecular target: T7, human Bcl-xL; assay: co-immunoprecipitation with anti-Flag antibody from HepG2 cells, immunoblot

T3 sequence (Q07820 whole entry): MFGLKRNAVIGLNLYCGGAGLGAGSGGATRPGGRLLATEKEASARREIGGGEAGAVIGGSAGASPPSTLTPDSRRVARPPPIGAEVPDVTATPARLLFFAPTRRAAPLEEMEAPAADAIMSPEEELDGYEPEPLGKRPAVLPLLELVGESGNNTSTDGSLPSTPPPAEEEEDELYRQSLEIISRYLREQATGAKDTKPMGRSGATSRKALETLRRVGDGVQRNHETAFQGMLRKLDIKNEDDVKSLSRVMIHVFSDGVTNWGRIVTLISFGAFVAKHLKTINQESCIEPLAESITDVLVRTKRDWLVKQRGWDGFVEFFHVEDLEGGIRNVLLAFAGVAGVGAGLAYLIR
T7 sequence (Q07817 whole entry): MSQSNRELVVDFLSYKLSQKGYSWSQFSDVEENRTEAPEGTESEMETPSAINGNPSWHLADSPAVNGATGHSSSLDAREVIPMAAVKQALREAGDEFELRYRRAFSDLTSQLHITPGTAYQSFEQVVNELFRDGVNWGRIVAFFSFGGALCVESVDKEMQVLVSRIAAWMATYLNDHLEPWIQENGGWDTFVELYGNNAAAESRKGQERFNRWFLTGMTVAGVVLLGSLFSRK
T5 sequence (Q07813 other isoform, or with tags, fused parts or gaps limits assumed): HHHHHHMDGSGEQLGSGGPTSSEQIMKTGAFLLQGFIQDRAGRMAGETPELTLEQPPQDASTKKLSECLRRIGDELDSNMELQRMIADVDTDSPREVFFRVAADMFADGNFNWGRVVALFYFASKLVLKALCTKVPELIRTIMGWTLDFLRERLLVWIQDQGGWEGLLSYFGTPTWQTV

In the case of peptaibol TK (peptide), the Ka [1] is reported as 42600 M⁻¹.

For C[C@H](CCC(=O)O)C[C@H](C)C[C@H](C)C(=O)/C=C(\O)[C@H](C)C[C@H](C)C/C=C/[C@@H](C)[C@@H](O)[C@@H](C)[C@@H](O)C[C@@H]1CC[C@@](C)([C@H]2CC[C@@](C)([C@@H](C)O)O2)O1 [ionomycin], the “HBV DNA replication” value [2] was “largely rescued”.

For cyclosporin A [CsA], the “HBx-induced cytosolic Ca^2+ increase (FRET ratio)” value ([3]; bzIs17, asp-3(tm4559), smIs451 animals) was “completely suppressed”, the “percentage of missing PLM” value ([4]; smIs98 animals that normally lost 50% of PLM neurons) was 15% and the PLM death ([4]; smIs98 animals with loss of ced-3) was 4%.

For C/C=C(/C)C(=O)O[C@H]1C(C)=C2[C@H]([C@@H]1OC(=O)CCCCCCC)[C@@](C)(OC(C)=O)C[C@H](OC(=O)CCC)[C@@]1(O)[C@H]2OC(=O)[C@@]1(C)O [thapsigargin], the “FRET ratio in PLM neurons” value ([3]; bzIs17 animals, vs untreated or vector-treated animals) was “significantly higher”.

B1: EGL-1 (other, C. elegans, UniProt O61667 16-106, looked up)
chain: MSNVFDVQSSVFYNEKNMFYSSSQDFSSCEDSSQFADDSGFFDDSEISSIGYEIGSKLAAMCDDFDAQMMSYSAHASDRSLFHRLLDFFAF
notes: also called BH3-only protein EGL-1
In the case of B1, the Ka [5] is reported as 1.52e+08 M⁻¹, the fold of the binding affinity between CED-9 and EGL-1 without peptaibol TK [5] is reported as 38 fold and the “binding affinity of EGL-1 to CED-9” value [6] is reported as 4.04e+06 M⁻¹. For the same molecule, the Ka [7] was 4.04e+06 M⁻¹.

B2: HBx(G124L, I127A), P03165 1-154 (protein)
chain: MAARLCCQLDPARDVLCLRPVGAESRGRPFSGSLGTLSSPSPSAVPTDHGAHLSLRGLPVCAFSSAGPCALRFTSARRMETTVNAHQILPKVLHKRTLGLSAMSTTDLEAYFKDCLFKDWEELLEEARLKVFVLGGCRHKLVCAPAPCNFFTSA
With B2 the reduction in HBV DNA replication against the wild-type HBV genome, Q-PCR of viral particles from HepG2 cells [8] was 8 fold and 9 fold and the reduction of replicative DNA intermediates in mouse liver against the wild-type pHBV replicon, southern blot [8] was 2 to 3 fold.

B3: Flag-HBx (other)
chain: MAARLCCQLDPARDVLCLRPVGAESRGRPFSGSLGTLSSPSPSAVPTDHGAHLSLRGLPVCAFSSAGPCALRFTSARRMETTVNAHQILPKVLHKRTLGLSAMSTTDLEAYFKDCLFKDWEELGEEIRLKVFVLGGCRHKLVCAPAPCNFFTSA
notes: also called pcDNA3.1-Flag-HBx
B3: no binding [9].

B4: GST-HBx (other)
chain: MAARLCCQLDPARDVLCLRPVGAESRGRPFSGSLGTLSSPSPSAVPTDHGAHLSLRGLPVCAFSSAGPCALRFTSARRMETTVNAHQILPKVLHKRTLGLSAMSTTDLEAYFKDCLFKDWEELGEEIRLKVFVLGGCRHKLVCAPAPCNFFTSA
notes: also called pGEX-4T-2-HBx
B4: no binding [10]; no binding [11].

B5: HBV x protein (HBx) (other)
chain: MAARLCCQLDPARDVLCLRPVGAESRGRPFSGSLGTLSSPSPSAVPTDHGAHLSLRGLPVCAFSSAGPCALRFTSARRMETTVNAHQILPKVLHKRTLGLSAMSTTDLEAYFKDCLFKDWEELGEEIRLKVFVLGGCRHKLVCAPAPCNFFTSA
notes: also called hepatitis B virus X protein
With B5 the binding result [12] was “no binding” and the “FRET ratio of cameleon Ca2+ sensor in PLM neurons (cytosolic Ca2+)” value [13] was 40%.

B6: HBx(G124L, I127A) (other)
chain: MAARLCCQLDPARDVLCLRPVGAESRGRPFSGSLGTLSSPSPSAVPTDHGAHLSLRGLPVCAFSSAGPCALRFTSARRMETTVNAHQILPKVLHKRTLGLSAMSTTDLEAYFKDCLFKDWEELLEEARLKVFVLGGCRHKLVCAPAPCNFFTSA
notes: also called mutant pHBV
B6: no binding [14].

B7: Flag-HBx(G124L, I127A) (other)
chain: MAARLCCQLDPARDVLCLRPVGAESRGRPFSGSLGTLSSPSPSAVPTDHGAHLSLRGLPVCAFSSAGPCALRFTSARRMETTVNAHQILPKVLHKRTLGLSAMSTTDLEAYFKDCLFKDWEELLEEARLKVFVLGGCRHKLVCAPAPCNFFTSA
notes: also called pcDNA3.1-Flag-HBx(G124L, I127A)
B7: no binding [15].
